Residue numbers refer to the chain shown, from its start. Names may count otherwise.
How the values were obtained:
[1] = biological target: T1, C-terminal, HMK-tagged P167L Rho, 32P-labelled (UniProt P0AG30 1-419, P167L, radiolabelled with [γ-32P]ATP in the HMK tag using protein kinase A); assay: Fe-BABE hydroxyl-radical protein cleavage; 0.2 µM 32P-labelled HMK-tagged P167L Rho and 2.5 µM Fe-BABE-labelled Psu, 37°C 30 min, 50 mM MOPS, 120 mM NaCl, 0.1 mM EDTA, 10 mM MgCl2, 10% glycerol, pH 8.0, 1 mM ATP; cleavage started with 4 mM ascorbate and hydrogen peroxide; SDS-PAGE autoradiogram; details: both partners purified
T1 construct: Transcription termination factor Rho; also called P^32-labelled HMK-tagged P167L Rho; end-labelled Rho; not shown: HMK (heart muscle protein kinase) tag, C-terminal, kept
T1 sequence (P0AG30 whole entry P167L): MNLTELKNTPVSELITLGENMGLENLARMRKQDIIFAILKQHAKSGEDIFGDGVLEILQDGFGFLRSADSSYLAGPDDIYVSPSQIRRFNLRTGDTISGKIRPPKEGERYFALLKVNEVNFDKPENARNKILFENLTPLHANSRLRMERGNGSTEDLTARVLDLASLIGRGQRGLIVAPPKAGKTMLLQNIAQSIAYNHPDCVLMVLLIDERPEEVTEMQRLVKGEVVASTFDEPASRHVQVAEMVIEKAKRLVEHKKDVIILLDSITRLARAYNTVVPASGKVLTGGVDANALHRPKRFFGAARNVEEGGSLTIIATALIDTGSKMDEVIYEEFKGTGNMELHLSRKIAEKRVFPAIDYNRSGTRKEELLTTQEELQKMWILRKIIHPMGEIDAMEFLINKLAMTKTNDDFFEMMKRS

[2] = biological target: T1, C-terminal, HMK-tagged P167L Rho, …; assay: limited trypsin digestion (protein foot-printing); 0.2 µM 32P-labelled HMK-tagged P167L Rho with 2.5 µM WT Psu in transcription buffer with 1 mM ATP, 10 min 37°C, then increasing trypsin for 1 min; gradient SDS-PAGE autoradiogram; details: both partners purified
[3] = biological target: T2, Single Cys derivative S153C of P167L Rho (UniProt P0AG30 1-419, P167L | C202S | S153C); assay: cross-linking; sulpho-LC-SPDP (cysteine to amine): SPDP-derivatized 32P-labelled Psu (~0.5 µM) with single-Cys Rho derivatives (~2 µM), 10 min 25°C, phosphate buffer (100 mM NaH2PO4, 150 mM NaCl, 1 mM EDTA, pH 7.5); non-reducing 12% PAGE; species sensitive to DTT; details: both partners purified
T2 construct: Transcription termination factor Rho; natural cysteine removed, made on P167L Rho; also called S153C Rho
T2 sequence (P0AG30 whole entry S153C/P167L/C202S): as the sequence (P0AG30 whole entry P167L) above, with S153C, C202S counted along it

[4] = biological target: T3, Single Cys derivative S346C of P167L Rho (UniProt P0AG30 1-419, P167L | C202S | S346C); assay: as above; details: both partners purified
T3 construct: Transcription termination factor Rho; natural cysteine removed, made on P167L Rho; also called S346C Rho
T3 sequence (P0AG30 whole entry P167L/C202S/S346C): as the sequence (P0AG30 whole entry P167L) above, with C202S, S346C counted along it

[5] = biological target: the molecule itself; assay: as above
[6] = biological target: T4, TMRA-labelled S153C Rho (on P167L Rho) (UniProt P0AG30 1-419, P167L | C202S | S153C, tetramethylrhodamine-5-maleimide (TMRA) on the single cysteine at 153); assay: FRET or BRET; fluorescein-labelled Psu (50 nM) and TMRA-labelled Rho (100 nM), 25 mM Tris-HCl pH 8.0, 50 mM KCl, 5 mM MgCl2, 25°C, 15 min; excitation 470 nm, emission enhancement at 570 nm; details: both partners purified
T4 construct: Transcription termination factor Rho; natural cysteine removed, made on P167L Rho; also called TMRA–Rho S153C; source: labelled with tetramethylrhodamine-5-maleimide, excess dye removed
T4 sequence (P0AG30 whole entry S153C/P167L/C202S): as the sequence (P0AG30 whole entry P167L) above, with S153C, C202S counted along it

[7] = biological target: T5, TMRA-labelled S346C Rho (on P167L Rho) (UniProt P0AG30 1-419, P167L | C202S | S346C, tetramethylrhodamine-5-maleimide (TMRA) on the single cysteine at 346); assay: as above; details: both partners purified
T5 construct: Transcription termination factor Rho; natural cysteine removed, made on P167L Rho; also called TMRA–Rho S346C; source: labelled with tetramethylrhodamine-5-maleimide, excess dye removed
T5 sequence (P0AG30 whole entry P167L/C202S/S346C): as the sequence (P0AG30 whole entry P167L) above, with C202S, S346C counted along it

B1: Fe-BABE-conjugated Psu S181C (natural protein, bacteriophage P4)
chain: MESTALQQAFDTSQNNKAAWLQRKNELAAAEQEYLRLLSGEGRNVSRLDELRNIIEVRKWQVNQAAGRYIRSHEAVQHISIRDRLNDFMQQHGTALAAALAPELMGYSELTAIARNSAIQRATDALREALLSWLAKGEKINYSAQDSDILTTIGFRPDVASVDDSREKFTPAQNMIFSRKCAQLASRQSV
modifications: Fe-BABE conjugated to the single cysteine at 181
notes: Psu (polarity suppressor), capsid-decoration protein of bacteriophage P4; natural cysteines removed; also called Fe-BABE-labelled Psu; source: conjugated with 5-fold molar excess of Fe-BABE (Pierce), desalted
[1]
  binding result: binds

B2: WT Psu (in vitro assays) (natural protein, bacteriophage P4)
chain: B1 chain with S13C, S117C, C181S
notes: Psu (polarity suppressor), 21 kDa capsid-decoration protein of bacteriophage P4; purification may stand in the Supplementary Methods
[2]
  binding result: binds

B3: SPDP-derivatized, HMK-tagged non-cysteine derivative of Psu (C13S and C117S) (natural protein, bacteriophage P4)
chain: B1 chain with C181S
modifications: 32P end-label in the HMK tag; primary amines (lysines) labelled with sulpho-LC-SPDP
notes: Psu (polarity suppressor), capsid-decoration protein of bacteriophage P4; natural cysteines removed; also called SPDP-labelled Psu; radiolabelled Psu; source: labelled with sulpho-LC-SPDP (Pierce), desalted
[3]
  binding result: binds
[4]
  binding result: binds
[5]
  stoichiometry N: 2

B4: Fluorescein-labelled Psu S181C (natural protein, bacteriophage P4)
chain: B1 chain
modifications: fluorescein-5-maleimide on the single cysteine at 181
notes: Psu (polarity suppressor), capsid-decoration protein of bacteriophage P4; natural cysteines removed; also called FL-labelled S181C Psu; source: labelled with fluorescein-5-maleimide, excess dye removed
[6]
  binding result: binds
[7]
  binding result: binds

B5: Fluorescein-labelled Psu S161C (natural protein, bacteriophage P4)
chain: B1 chain with S161C, C181S
modifications: fluorescein-5-maleimide on the single cysteine at 161
notes: Psu (polarity suppressor), capsid-decoration protein of bacteriophage P4; natural cysteines removed; also called FL-labelled S161C Psu; source: labelled with fluorescein-5-maleimide, excess dye removed
[6]
  binding result: binds
[7]
  binding result: binds
